Like-named read-outs stand apart in the source and are kept apart here. Where no end group is shown, it is not given here.
Key:
Assay in all cases: cell-based or functional assay
[1] = molecular target: T1, human recombinant adrenomedullin receptor (CRLR+RAMP3) (human)
[2] = molecular target: T2, Adrenomedullin 1-52-Gly (ADM-Gly) (human, not fully specified)
T2 peptide: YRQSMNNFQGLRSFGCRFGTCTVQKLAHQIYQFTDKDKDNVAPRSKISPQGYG

[3] = molecular target: T1, human recombinant adrenomedullin …; remark: listed apart in the source

T1 sequence (Q16602 whole entry, chain 1 of 2): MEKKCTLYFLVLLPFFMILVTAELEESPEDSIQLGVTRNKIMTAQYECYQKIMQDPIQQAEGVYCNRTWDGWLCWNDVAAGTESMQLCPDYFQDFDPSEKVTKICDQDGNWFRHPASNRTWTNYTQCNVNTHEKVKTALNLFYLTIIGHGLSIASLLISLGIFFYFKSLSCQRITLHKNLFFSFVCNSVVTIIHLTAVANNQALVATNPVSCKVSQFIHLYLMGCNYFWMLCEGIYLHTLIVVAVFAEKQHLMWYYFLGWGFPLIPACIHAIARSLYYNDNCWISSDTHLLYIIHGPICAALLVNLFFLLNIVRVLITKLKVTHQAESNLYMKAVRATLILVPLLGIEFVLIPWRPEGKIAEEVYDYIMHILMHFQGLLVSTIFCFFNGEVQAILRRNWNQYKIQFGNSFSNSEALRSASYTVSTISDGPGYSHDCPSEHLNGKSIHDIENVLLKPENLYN
T1 sequence (O60896 whole entry, chain 2 of 2, further chain): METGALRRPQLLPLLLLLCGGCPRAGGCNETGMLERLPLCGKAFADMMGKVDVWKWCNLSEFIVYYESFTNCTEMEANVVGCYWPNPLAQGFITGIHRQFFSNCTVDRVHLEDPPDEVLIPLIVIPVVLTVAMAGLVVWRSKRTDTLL

B1: Mouse ADM 1-50 (peptide)
peptide: YRQSMNQGSRSNGCRFGTCTFQKLAHQIYQLTDKDKDGMAPRNKISPQGY-NH2
modifications: ends and bridges not checked
EC50 (read off the curve), cAMP stimulation [1]: ~0.08 nM

B2: HAM8101 (antibody, human IgG1, kappa, V domains shown)
VH: QVQLVQSGAEVKKPGSSVKVSCKASGYTFSRYWIEWVRQAPGQGLEWIGEILPGSGSTNYNQKFQGRVTITADTSTSTAYMELSSLRSEDTAVYYCTEGYEYDGFDYWGQGTTVTVSS
VL: DVVLTQSPLSLPVTLGQPASISCRSSQSIVYSNGNTYLEWYLQRPGQSPRLLIYRVSNRFSGVPDRFSGSGSGTDFTLKISRVEAEDVGVYYCFQGSHIPYTFGGGTKLEIKR
formation of bio-ADM from ADM-Gly by native human plasma PAM after 90 minutes, with 300 µg/mL HAM8101 against without [2]: 4 fold

B3: mature human Adrenomedullin (Human ADM 1-52) (peptide)
peptide: YRQSMNNFQGLRSFGCRFGTCTVQKLAHQIYQFTDKDKDNVAPRSKISPQGY-NH2
modifications: ends and bridges not checked
EC50 (read off the curve), cAMP stimulation [3]: ~1 nM

From patent publication US12662530 (SPHINGOTEC, dated 2026)
